Test results reported in paper PMC6200646 (Journal of immunology (Baltimore, Md. : 1950), 2018).

T1: human CD25, captured for SPR (human, UniProt P01589 22-240)
T1 sequence (looked up): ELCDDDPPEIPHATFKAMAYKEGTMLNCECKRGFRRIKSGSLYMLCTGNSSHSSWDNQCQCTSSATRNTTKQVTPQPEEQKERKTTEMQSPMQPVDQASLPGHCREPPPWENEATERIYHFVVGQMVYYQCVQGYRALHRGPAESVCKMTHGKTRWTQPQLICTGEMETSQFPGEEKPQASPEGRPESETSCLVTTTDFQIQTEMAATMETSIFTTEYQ

T2: mCD122(27-241)-hFc-D/mCD132(23-263)-hFc-K heterodimeric Fc fusion (mouse, UniProt P16297 27-241; P34902 23-263)
T2 sequence (looked up) 1: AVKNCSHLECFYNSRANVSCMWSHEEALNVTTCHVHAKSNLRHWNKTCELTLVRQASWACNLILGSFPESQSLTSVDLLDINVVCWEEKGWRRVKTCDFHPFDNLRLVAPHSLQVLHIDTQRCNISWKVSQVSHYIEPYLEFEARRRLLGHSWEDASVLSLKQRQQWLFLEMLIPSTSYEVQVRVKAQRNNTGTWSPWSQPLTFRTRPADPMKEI
T2 sequence (looked up) 2: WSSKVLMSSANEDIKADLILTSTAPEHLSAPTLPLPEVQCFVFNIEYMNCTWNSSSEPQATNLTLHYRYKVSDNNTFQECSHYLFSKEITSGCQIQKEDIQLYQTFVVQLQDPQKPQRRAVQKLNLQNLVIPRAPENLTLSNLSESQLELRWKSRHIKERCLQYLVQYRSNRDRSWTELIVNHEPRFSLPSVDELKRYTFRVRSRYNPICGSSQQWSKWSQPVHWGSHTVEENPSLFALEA

T3: biot-mCD25(22-186)-BioP-TVMV-His, His cleaved (mouse, UniProt P01590 22-186, biotin)
T3 sequence (looked up): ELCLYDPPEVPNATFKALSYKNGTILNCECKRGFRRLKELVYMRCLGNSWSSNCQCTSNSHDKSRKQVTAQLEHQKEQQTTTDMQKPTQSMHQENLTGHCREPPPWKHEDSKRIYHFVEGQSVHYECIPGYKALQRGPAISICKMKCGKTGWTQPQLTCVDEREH


How the values were obtained:
[1] = target: T1, human CD25, captured for SPR; assay: SPR
SEC-MALS = target: the molecule itself; assay: SEC-MALS
[2] = target: T2, mCD122(27-241)-hFc-D/mCD132(23-263)-hFc- …; assay: SPR
[3] = target: T3, biot-mCD25(22-186)-BioP-TVMV-His, His …; assay: SPR

fold weaker Kd than mIL-2 to mCD25 [1] [fold]	fold weaker binding than mIL-2 to mIL-2Rβ/γc [2] [fold]	fold stronger affinity than mIL-2/mCD25 to mCD25 [3] [fold]	fold weaker apparent Kd than mIL-2 to mIL-2Rβ/γc [2] [fold]	fold weaker apparent Kd than mIL-2 to mCD25 [3] [fold]	Binder	stoichiometry N (SEC-MALS)
~234	–	–	–	–	mouse IL-2 (ligand, UniProt P04351 21-169, looked up) APTSSSTSSSTAEAQQQQQQQQQQQQHLEQLLMDLQELLSRMENYRNLKLPRMLTFKFYLPKQATELKDLQCLEDELGPLRHVLDLTQSKSFQLEDAENFISNIRVTVVKLKGSDNTFECQFDDESATVVDFLRRWIAFCQSIISTSPQ	–
–	45	10	–	–	mIL-2/hCD25 mouse/human chimeric fusion protein with the 12 amino acid (G3S)3 linker (other, mouse | human, glycosylated) APTSSSTSSSTAEAQQQQQQQQQQQQHLEQLLMDLQELLSRMENYRNLKLPRMLTFKFYLPKQATELKDLQCLEDELGPLRHVLDLTQSKSFQLEDAENFISNIRVTVVKLKGSDNTFECQFDDESATVVDFLRRWIAFCQSIISTSPQGGGSGGGSGGGSELCDDDPPEIPHATFKAMAYKEGTMLNCECKRGFRRIKSGSLYMLCTGNSSHSSWDNQCQCTSSATRNTTKQVTPQPEEQKERKTTEMQSPMQPVDQASLPGHCREPPPWENEATERIYHFVVGQMVYYQCVQGYRALHRGPAESVCKMTHGKTRWTQPQLICTGEMETSQFPGEEKPQASPEGRPESETSCLVTTTDFQIQTEMAATMETSIFTTEYQGG	2
–	–	–	~680	~1000	mIL-2/mCD25 fusion protein with the 12 amino acid (G3S)3 linker (other, mouse, glycosylated (N- and O-linked carbohydrate)) APTSSSTSSSTAEAQQQQQQQQQQQQHLEQLLMDLQELLSRMENYRNLKLPRMLTFKFYLPKQATELKDLQCLEDELGPLRHVLDLTQSKSFQLEDAENFISNIRVTVVKLKGSDNTFECQFDDESATVVDFLRRWIAFCQSIISTSPQGGGSGGGSGGGSELCLYDPPEVPNATFKALSYKNGTILNCECKRGFRRLKELVYMRCLGNSWSSNCQCTSNSHDKSRKQVTAQLEHQKEQQTTTDMQKPTQSMHQENLTGHCREPPPWKHEDSKRIYHFVEGQSVHYECIPGYKALQRGPAISICKMKCGKTGWTQPQLTCVDEREHHRFLASEESQGSRNSSPESETSCPITTTDFPQPTETTAMTETFVLTMEYKGG	2
